Among the data in publication PMC13049129 are binding values, retold here.

This data set addresses HnRNPA3-Myc (Homo sapiens) (UniProt P51991). Briefly: EMSA. The conditions noted are these: RNA-EMSA: 40 mM Tris pH 7.4, 30 mM KCl, 1 mM MgCl2, 0.1% IGEPAL CA-630, 1 mM DTT, 10 ug/ml BSA, 37 C, 30 min; 15% polyacrylamide gel stated to contain 8 M urea.

Chain of HnRNPA3-Myc (Homo sapiens) (P51991 whole entry): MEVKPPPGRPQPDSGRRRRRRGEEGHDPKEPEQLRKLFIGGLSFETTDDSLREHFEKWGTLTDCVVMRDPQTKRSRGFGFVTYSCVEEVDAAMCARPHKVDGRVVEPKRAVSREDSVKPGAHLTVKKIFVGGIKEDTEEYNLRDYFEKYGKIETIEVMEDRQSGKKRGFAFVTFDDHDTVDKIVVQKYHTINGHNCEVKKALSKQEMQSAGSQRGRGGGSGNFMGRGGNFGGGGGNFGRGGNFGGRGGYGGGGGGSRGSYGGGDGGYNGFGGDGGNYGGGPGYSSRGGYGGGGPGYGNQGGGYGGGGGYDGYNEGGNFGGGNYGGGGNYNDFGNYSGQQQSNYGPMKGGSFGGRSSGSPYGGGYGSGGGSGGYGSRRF

On to “GGGAUGUUAAAGAUGAGCGGGUGGCAGCGACAGAGCCAAAAUCAGAGCUGGAACCUGAGGAGAGAGUGUUCAAGAAGGAAGUGUAUCUUCAUACAUCACCACACCUGAAA [huORFchop RNA (105 nt)]”, for which the binding entry is reported as “binds”.
